We go through 1 molecule from article PMC11054337 (2024).

The target in assay [1] is T1, xanthine phosphoribosyltransferase PTS1 peptide (Leishmania donovani). Nature of the assay: fluorescence polarization. For orientation: In fluorescence polarisation assays a small probe gives low polarisation when free and higher when bound to something large.
Assay [2] has as its target T2, galactokinase PTS1 peptide (Leishmania donovani). Nature of the assay: fluorescence polarization.
Assay [3] has as its target T3, phosphofructokinase PTS1 peptide (Leishmania donovani). Nature of the assay: fluorescence polarization.
Assay [4] concerns the target T1, xanthine phosphoribosyltransferase PTS1 …. Nature of the assay: fluorescence polarization competition.
The target in assay [5] is T2, galactokinase PTS1 peptide. Nature of the assay: fluorescence polarization competition.
In assay [6] the target is T3, phosphofructokinase PTS1 peptide. Nature of the assay: fluorescence polarization competition.

B1: PEX5 303-625 (protein)
chain: RLQKVTNSTDYPFEPNNPYMFHDFPFDEGMEMLQLGNLAEAALAFEAVCHKDSSNEKAWQILGTTQAENEKDGLAIIALNNARKLNPRNLEVHAALSVSHTNERNADAAMDSLKAWLVNHPEYEQLASVSIPPNAELDVQETFFFADPSRMREARTLYEAAIEMNPSDSQLFTNLGVLHNVAHEFDEAAECFRKAVALHPDDPKMWNKLGATLANGGHPDQALEAYNRALDINPGYVRAMYNMAVAYSNMSQYNMAARQIVKAIASQQGGTKPSGEGSIMATRNMWDLLRMTLNLMDRDDLVQLTYNEQLEPFVKEFGLEGHV
Consider B1, for which the figures for the Kd in assay [1], in assay [2] and in assay [3] were 0.078 µM, 0.382 µM and 0.102 µM, respectively. Further, the IC50 (as a rule, the point on the concentration scale where inhibition reaches its midpoint) was 3.61 µM in assay [4], 10.7 µM in assay [5] and above 60 µM in assay [6].
